Measured values from EP1192182B1, “PITUITARY ADENYLATE CYCLASE ACTIVATING PEPTIDE (PACAP) RECEPTOR 3 (R3) AGONISTS AND THEIR PHARMACOLOGICAL METHODS OF USE” (priority 1999, dated 2001).
No end group written: not given here.

T1: PACAP-R3 (human, UniProt P41587 24-438)
T1 sequence (looked up): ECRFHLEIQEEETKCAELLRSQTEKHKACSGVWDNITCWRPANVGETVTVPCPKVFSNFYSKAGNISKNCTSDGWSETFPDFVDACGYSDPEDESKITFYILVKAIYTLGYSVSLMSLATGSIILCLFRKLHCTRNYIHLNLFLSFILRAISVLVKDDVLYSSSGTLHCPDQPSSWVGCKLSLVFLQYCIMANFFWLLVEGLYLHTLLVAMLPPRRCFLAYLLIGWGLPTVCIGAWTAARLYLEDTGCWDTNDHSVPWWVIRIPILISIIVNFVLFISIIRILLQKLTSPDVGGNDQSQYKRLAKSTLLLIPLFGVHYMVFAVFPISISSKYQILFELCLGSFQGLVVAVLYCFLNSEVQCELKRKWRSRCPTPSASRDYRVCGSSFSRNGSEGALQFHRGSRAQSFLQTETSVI


These binders were tested against T1, PACAP-R3 (assay: cell-based or functional assay).

| Binder | R3 Selectivity [ratio] |
| --- | --- |
| HSDAVFTDNYTRLRKQVAAKKYLQSIKKKR [R3P77] | 500 |
| HSDAVFTDNYTRLRKQVAAKKYLQSILKK [R3P85] | 30 |
| HSDAVFTDNYTRLRKQMAVKKYLNSIKK-NH2 [R3P8] | 1.5 |
| HSDAVFTDNYTRLRKQLAVKKYLNSILN [R3P46] | 7 |
| HSDAVFTDNYTRLRKQVAAKKYLQSILKKR [R3P84] | 40 |
| HSDAVFTDNYTRLRKQVAVKKYLQSILKKR [R3P88] | 12 |
| HSDGIFTESYSRYRKQMAVKKYLAALKKKRYKQRVKNK [R3P6] | 3 |
| HSDAVFTDNYTRLRKQMAAKKYLNSIKK [R3P51] | 90 |
| HSDGIFTDSYSRYRKQMAVKKYLAAVKQGGT-NH2 [R3P16] | 1.4 |
| HSDAVFTENYTKLRKQLAAKKYLNDLKKGGT [R3P3] | 130 |
| HSDAVFTENYTRLRKQMAVKKYLNSLKK-NH2 [R3P7] | 0.5 |
| HSDAVFTDNYTRLRKQMAAKKYLNSIKKK [R3P54] | > 200 |
| HSDAVFTDNYTRLRKQVAAKKYLNSIKKKR [R3P78] | 230 |
| HSDAVFTDNYTRLRKQVAVKKYLQSILKK [R3P89] | 15 |
| HSDAVFTDNYTRLRKQVAAKKYLQSIKNK [R3P86] | 110 |
| HSDAVFTDNYTRLRKQMAAKKYLNSIKNKR [R3P65] | 130 |
| HSDGIFTDSYSRYRKQLAAKKYLADVKK [R3P38] | 7 |
| HSDAVFTDNYTRLRKQMAVKKYLNSIKKGGT [R3P9] | 20 |
| HSDAVFTDNYTRLRKQVAAKKYLQSIKK [R3P60] | 120 |
| Ac-HSDAVFTENYTKLRKQLAAKKYLNDLKKGGT (ends and bridges not checked) [R3P2] | > 300 |
| HSDAVFTDNYTRLRKQMAVKKYLNDILN [R3P48] | 8 |
| HSDGIFTDSYSRYRKQMAVKKYLAAVKKYLAAVRHG-NH2 [R3P17] | 2 |
| HSDGIFTDSYSRYRKQLAVKKYLAAVKK [R3P39] | 2 |
| HSDAVFTDNYTRLRKQMAVKKYLNSIKKKR [R3P57] | 190 |
| HSDAVFTDNYTRLRKQMAAKKYLNSILK [R3P50] | 6 |
| HSDAVFTDQYTRLRKQLAAKKYLNTIKNKRY [R3P72] | > 600 |
| HSDAVFTDQYTRLRKQLAAHKYLNTIKNKRY [R3P75] | > 500 |

| Binder | R3 Selectivity [ratio] |
| --- | --- |
| HSDAVFTENYTKLRKQLAAKKYLNDLKK [R3P5] | 30 |
| HSDAVFTDNYTRLRKQMAAKKYLNSIKN [R3P49] | 30 |
| HSDAVFTDNYTRLRKQIAAKKYLQTIKK [R3P61] | 140 |
| HSDAVFTDNYTRLRKQMAAKKYLNSIKKKRY [R3P52] | > 250 |
| HSDAVFTDNYTRLRKQVAAKKYLQSIKNKRY [R3P66] | 250 |
| HSDAVFTDNYTRLRKQVAAKKYLQSILKKRY [R3P83] | 60 |
| HSDAVFTDNYTRLRKQMAAKHYLNSIKNKRY [R3P74] | 150 |
| HSDAVFTDNYTRLRKQLAAKKYLNTIKNKRY [R3P67] | 330 |
| HSDAVFTDNYTRLRKQMAAKKYLNSIKNKRY [R3P55] | 280 |
| HSDAVFTDNYTRLRKQMAAKKYLQSIKNKRY [R3P69] | 190 |
| HSDAVFTDNYTRLRKQMAAHKYLNSIKNKRY [R3P73] | 170 |
| HSDAVFTDNYTRLRKQMAAKKYLNTIKNKRY [R3P70] | > 250 |
| HSDAVFTDNYTRLRKQMAVKKYLNSIKNKRY [R3P59] | 70 |
| HSDAVFTDQYTRLRKQMAAKKYLNSIKNKRY [R3P71] | 660 |
| HSDAVFTDNYTRLRKQMAVKKYLNSIKKKRY [R3P56] | 100 |
| HSDGIFTDSYSRYRKQLAAKKYLADVKKGGT [R3P37] | 18 |
| HSDAVFTDNYTRLRKQVAVKKYLQSIKKK [R3P81] | 100 |
| HSDAVFTDNYTRLRKQLAAKKYLNDILKGGT [R3P23] | 23 |
| HSDAVFTDNYTRLRKQLAVKKYLNDILKGGT [R3P28] | 1 |
| HSDAVFTDNYTRLRKQLAAKKYLNDILNGGT [R3P27] | 8 |
| HSDAVFTDNYTRLRKQVAAKKYLNSIKK [R3P62] | 100 |
| HSDGIFTDSYSRYRKQMAVKKYLAAVKK [R3P40] | 2 |
| HSDAVFTDNYTRLRKQVAVKKYLQSIKNKRY [R3P82] | 23 |
| HSDAVFTDNYTRLRKQVAVKKYLQSILKKRY [R3P87] | 3 |
| HSDAVFTDNYTRLRKQMAAKKYLNSIKKKR [R3P53] | 2500 |
| HSDAVFTDNYTRLRKQMAAKKYLNSILN [R3P47] | 6 |
| HSDAVFTDNYTRLRKQMAVKKYLNSIKKK [R3P58] | 170 |
